The results in this text go back to paper PMC9503769, “Development and Evaluation of a Peptide Heterodimeric Tracer Targeting CXCR4 and Integrin αvβ3 for Pancreatic Cancer Imaging” (Pharmaceutics, 2022).

The format of data set [1] is physicochemical. On the procedure: ^68Ga-yG5-RGD, ^68Ga-yG5, or ^68Ga-RGD (740 kBq each) were separately added to a mixture of 1.0 mL n-octanol and 1.0 mL PBS, and then the mixtures were thoroughly vortexed for 5 min. Each sample was then centrifuged at 8000 rpm for 4 min. Each sample (100 μL) in organic phase and aqueous phase was collected separately in tubes, 5 tubes for each phase. Radioactive counts per tube of samples were measured by gamma counter, and logP values were calculated by the following formula: logP = log10 (counts in n-octanol/counts in PBS).

Data set [2] is described as follows: in vivo. The conditions noted are these: female, BALB/c nude, mouse, iv, total radioactivity. Details: species or system BALB/c nude mice. On the procedure:
All animal studies were conducted in accordance with the guidelines of the Institutional Animal Care and Use Committee of Tongji Medical College of Huazhong University of Science and Technology (2021-S2875; 1 February 2021). Female BALB/c nude mice (5–6 weeks old) were purchased from Beijing HFK Bioscience Co., Ltd. (Beijing, China) and were raised in a specific pathogen-free barrier system. For subcutaneous tumor xenograft model, 1 × 10^7 cells of BxPC3 or MX-1 in 100 μL PBS were injected into the right flanks of nude mice. Animal models were used for follow-up experiments when tumors reached 8~10 mm in diameter. The group setting was kept consistent with PET/CT scan. Each group of mice (n = 4) was injected via tail vein with probes (5.55~7.4 MBq, 150 μL) or co-injected with probes and blockers (10 mg/kg). Mice were euthanized by cervical dislocation under anesthesia 2 h post-injection. Subsequently, tissues of interest were collected, washed, weighed, and counted by a gamma counter. After decay correction, uptake of tissues was expressed as the percentage of injected dose per gram of tissue (%ID/g).

In data set [3] the test system is BxPC3 cells. Put plainly: Cell blocking experiment in BxPC3 cells. Format: cell-based, human. The conditions noted are these: co-incubated with 1000-fold molar excess of unlabeled RGD, AMD3100 or AMD3100 + RGD, all p < 0.001. On the procedure: BxPC3 was used for cell blocking experiments. One group was taken as a control and added only ^68Ga-yG5-RGD (74 kBq/well, 50 μL, 1 pmol). Other groups were incubated with the blocking agents (AMD3100, RGD, AMD3100 + RGD unlabeled, 1000 pmol/10 μL, and ^68Ga-yG5-RGD (74 kBq/well, 50 μL). The rest of the procedures were carried out as described above.

Data set [4] relates to MX-1 cells. Kind of data set: Cell uptake in MX-1 cells (negative control). Format: cell-based, human. Particulars: all time points, all p < 0.001. On the procedure:
(§1) BxPC3 cells in the logarithmic growth phase were harvested, counted, and seeded onto 24-well plate with 2 × 10^5 cells/well and cultured overnight. The original culture medium was discarded and fresh DMEM (serum and antibiotic-free) was then added to continue culturing for 0.5 h. Subsequently, each well was separately added ^68Ga-yG5-RGD, ^68Ga-yG5, or ^68Ga-RGD (74 kBq/well, 50 μL) and incubated for 30 min, 1 h, and 2 h (three replicate wells/each time point). At the end of incubation, the supernatant and the cell lysate were separately collected and radioactivity was measured by gamma counter. The cell uptake was expressed as the percentage of total applied radioactivity. Cell uptake study experiment was also performed using MX-1 as a control group for ^68Ga-yG5-RGD. The detailed experimental procedure was the same as above.

The subject of data set [5] is BxPC3 cells. Kind of data set: Cell uptake in BxPC3 cells. Format: cell-based, human. The conditions noted are these: 74 kBq/well, 30 min, 1 h and 2 h, all p < 0.001, n = 3. The method, then: as §1
A short description of data set [6]: Stability in PBS (radio-HPLC). Format: physicochemical. The conditions noted are these: 1.85 MBq in 300 μL, 2 h, 37 °C. The method, then: (§2) The ^68Ga-yG5-RGD (1.85 MBq, 5 μL) or ^68Ga-yG5 (1.85 MBq, 5 μL) was separately added to 300 μL of PBS or normal human fresh serum, incubated for 2 h at 37 °C. After incubation, the PBS sample was subjected to HPLC for radiochemical purity under the conditions described above. An equal volume of anhydrous acetonitrile was added to serum sample, mixed, and then centrifuged at 13,000 g for 10 min to fully precipitate protein. Following this, the supernatant was collected and authenticated by HPLC.

Data set [7] is classed as in vitro ADME, human. On the procedure:
as §2

Each structure is given as a SMILES string. Where a SMILES comes first, the peptide text is derived from it. [ ]: non-standard residue; d: D form. The star is where a group is joined. X1 = O=C(O)CN1CCN(CC(=O)O)CC(Cc2ccc(NC(=S)*)cc2)N(CC(=O)O)CC1; 2Nal = N[C@@H](Cc1ccc2ccccc2c1)C(=O)O; dNMeK = CN[C@H](CCCCN)C(=O)O

In general, log P refers to the decadic logarithm of the partition coefficient of the neutral form, usually between octanol and water. A high value points to higher lipophilicity.

`N=C(N)NCCC[C@@H]1NC(=O)[C@H](CCCCNC(=S)Nc2ccc(CC3CN(CC(=O)O)CCN(CC(=O)O)CCN3CC(=O)O)cc2)NC(=O)[C@@H](Cc2ccc(O)cc2)NC(=O)[C@H](CC(=O)O)NC(=O)CNC1=O` (some centres unmarked) [^68Ga-RGD, metal not drawn, reference compound]: in data set [1], the lipophilicity (log P) is listed as −3.22 ± 0.02. The tissue to tissue ratio at 2 h in data set [2] (tumor/blood uptake ratio) was found to be 10.8 ± 2.04; in data set [2] (tumor/kidney uptake ratio), 0.77 ± 0.06; in data set [2] (tumor/liver uptake ratio), 0.96 ± 0.15; in data set [2] (tumor/muscle uptake ratio), 8.61 ± 0.61.

In the case of `CN1C(=O)[C@@H](Cc2ccc(O)cc2)NC(=O)CNC(=O)[C@H](Cc2ccc3ccccc3c2)NC(=O)[C@H](CCCNC(=N)N)NC(=O)[C@H]1CCCCNC(=O)C(CCn1nnc2c1CCC1C(CC2)C1COC(=O)NCCOCCOCCOCCOCCC(=O)NCCCC[C@@H]1NC(=O)[C@@H](Cc2ccc(O)cc2)NC(=O)[C@H](CC(=O)O)NC(=O)CNC(=O)[C@H](CCCNC(=N)N)NC1=O)N1CCN(CC(=O)O)CCN(CC(=O)O)CC1` (some centres unmarked) [^68Ga-yG5-RGD, metal not drawn], the “cellular uptake in BxPC3 cells with blockers” value in data set [3] is “significantly decreased”. In data set [4], the “cellular uptake in MX-1 cells” value is recorded as “significantly lower than that of BxPC3 cells”. In data set [5], the “cellular uptake in BxPC3 cells” value was “significantly higher than that of ^68Ga-RGD and ^68Ga-yG5”. The “proportion of intact tracer” value in data set [6] was “greater than 99%”. Further, the “log P” value in data set [1] was −2.47 ± 0.04. Also, the “metabolic-free Gallium-68 observed” value in data set [7] is “less than 1%”. Also, the tissue to tissue ratio at 2 h amounted to 14.5 ± 0.8 in data set [2] (tumor/blood uptake ratio), 0.9 ± 0.29 in data set [2] (tumor/kidney uptake ratio), 0.46 ± 0.1 in data set [2] (tumor/liver uptake ratio) and 13.6 ± 0.81 in data set [2] (tumor/muscle uptake ratio).

Consider `CN1C(=O)[C@@H](Cc2ccc(O)cc2)NC(=O)CNC(=O)[C@H](Cc2ccc3ccccc3c2)NC(=O)[C@H](CCCNC(=N)N)NC(=O)[C@H]1CCCCNC(=S)Nc1ccc(CC2CN(CC(=O)O)CCN(CC(=O)O)CCN2CC(=O)O)cc1` (some centres unmarked) [^68Ga-yG5, metal not drawn] (cyclo([2Nal]G[dY][dNMeK](X1)R)), for which the “log P” value in data set [1] is on record as −0.35 ± 0.09. The tissue to tissue ratio at 2 h in data set [2] (tumor/blood uptake ratio) is 2.01 ± 0.43; in data set [2] (tumor/kidney uptake ratio), 0.34 ± 0.06; in data set [2] (tumor/liver uptake ratio), 0.13 ± 0.04; in data set [2] (tumor/muscle uptake ratio), 3.86 ± 1.29.
